Data from paper PMC4118823, “Structural and biophysical analysis of interactions between cod and human uracil-DNA N-glycosylase (UNG) and UNG inhibitor (Ugi)” (Acta Crystallographica Section D: Biological Crystallography, 2014).

Legend:
[1] = molecular target: T1, Uracil-DNA N-glycosylase from Atlantic cod (Atlantic cod, UniProt Q9I983 82-301); test: ITC; Ugi (267-667 µM, syringe) injected into UNG (20-50 µM, cell); 25°C; 20 mM sodium phosphate pH 7.5, 200 mM sodium chloride; single-site binding model; conditions: both partners purified
T1 construct: Catalytic domain of uracil-DNA N-glycosylase (UNG) from Atlantic cod; Lanes et al., 2002). numbers count on: hUNG numbering; also called cUNG; cod UNG; source: recombinantly produced in E. coli; expression and purification as described previously (Assefa et al., 2012)

[2] = molecular target: T2, human uracil-DNA N-glycosylase (human, UniProt P13051-2 1-304); test: as above; conditions: both partners purified
T2 construct: Human uracil-DNA N-glycosylase (UNG), recombinant; also called hUNG; human UNG; source: expression and purification as described previously (Assefa et al., 2012)
T2 sequence (P13051 94-313): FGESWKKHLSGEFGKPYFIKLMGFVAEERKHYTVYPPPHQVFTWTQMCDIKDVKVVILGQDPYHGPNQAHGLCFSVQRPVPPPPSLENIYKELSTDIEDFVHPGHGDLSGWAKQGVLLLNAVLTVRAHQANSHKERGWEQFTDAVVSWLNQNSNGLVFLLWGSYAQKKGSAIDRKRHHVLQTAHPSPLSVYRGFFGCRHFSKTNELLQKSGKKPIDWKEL

T1 sequence (Q9I983 entry or part of it): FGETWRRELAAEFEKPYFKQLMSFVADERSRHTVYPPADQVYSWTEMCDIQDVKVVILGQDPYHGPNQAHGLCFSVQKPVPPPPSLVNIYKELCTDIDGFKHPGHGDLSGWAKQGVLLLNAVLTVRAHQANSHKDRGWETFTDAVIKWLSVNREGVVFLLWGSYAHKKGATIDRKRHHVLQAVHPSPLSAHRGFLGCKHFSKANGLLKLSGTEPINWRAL

B1: uracil-DNA N-glycosylase inhibitor (Ugi) (natural protein)
chain: MTNLSDIIEKETGKQLVIQESILMLPEEVEEVIGNKPESDILVHTAYDESTDENVMLLTSDAPEYKPWALVIQDSNGENKIKML
notes: expressed from a recombinant pRSETb plasmid provided by T. Géoui; source: E. coli BL21 (DE3) pLysS, purified (heating to 95°C, Q-Sepharose, Superdex 75)
[1]
  Ka: 3.25e+07 M⁻¹
  Kd: 31 nM
  dH: -6 kcal/mol
  stoichiometry N: 0.994
[2]
  Ka: 1.5e+06 M⁻¹
  Kd: 685 nM
  dH: -2.25 kcal/mol
  stoichiometry N: 0.921
